Data: patent US20250368734A1 (ANTENGENE BIOLOGICS, published 2025)

T1: mouse GPRC5D (mouse, UniProt Q9JIL6 1-344)
T1 construct: whole, on cells; HEK293T-mGPRC5D cells; also called mGPRC5D; murine GPRC5D
T1 sequence (looked up): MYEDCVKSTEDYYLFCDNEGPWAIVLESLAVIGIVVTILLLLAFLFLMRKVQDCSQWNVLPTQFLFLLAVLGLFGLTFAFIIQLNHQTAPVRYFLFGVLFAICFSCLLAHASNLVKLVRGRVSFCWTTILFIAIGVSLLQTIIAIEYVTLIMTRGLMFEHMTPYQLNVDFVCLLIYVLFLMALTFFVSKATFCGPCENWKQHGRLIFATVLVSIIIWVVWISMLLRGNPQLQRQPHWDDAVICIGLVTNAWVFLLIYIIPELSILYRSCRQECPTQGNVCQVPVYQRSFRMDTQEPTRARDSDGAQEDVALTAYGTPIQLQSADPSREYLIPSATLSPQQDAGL


Assays:
cynomolgus monkey GPRC5D = biological target: T2, cynomolgus monkey GPRC5D (cynomolgus monkey); assay: FACS, HEK293T-cynoGPRC5D cells
T2 construct: whole, on cells; HEK293T-cynoGPRC5D cells; also called cynoGPRC5D
Source text: (§1) The subcloning plates were screened by Mirrorball assay and the subclones with good binding ability were expanded to 24-wells for confirmation tests. The specificity and cross-reactivity of these subclones were confirmed with FACS analysis. Briefly, parental HEK293T, HEK293T cells stably over-expressing human GPRC5D protein (i.e., HEK293T-hGPRC5D), HEK293T cells stably over-expressing cynomolgus monkey GPRC5D protein (i.e., HEK293T-cynoGPRC5D), HEK293T cells stably over-expressing mouse GPRC5D protein (i.e., HEK293T-mGPRC5D), and OPM2 cells were incubated with antibodies produced by each subclone, respectively. Fluorescent dye-conjugated secondary antibody was used to detect the binding of the primary antibody with the cells. Median fluorescence intensity (MFI) was measured by FACS analysis,
(§2) As a result, 21 antibodies were discovered with unique sequences showing positive binding with HEK293T-hGPRC5D and OPM2 cells. Among which, some clones could also bind with HEK293T-cynoGPRC5D and/or HEK293T-mGPRC5D. […] ATG596 was a positive human IgG1 control antibody which comprises a VH region having an amino acid sequence as set forth in SEQ ID NO: 199, and a VL region having an amino acid sequence as set forth in SEQ ID NO: 200.

mouse GPRC5D = biological target: T1, mouse GPRC5D; assay: FACS, HEK293T-mGPRC5D cells
Source text: as §1, §2

human GPRC5D [1] = biological target: T3, human GPRC5D (human, UniProt Q9NZD1 1-345); assay: FACS, HEK293T-hGPRC5D cells
T3 construct: whole, on cells; also called hGPRC5D; G-protein coupled receptor family C group 5 member D
Source text: as §1, §2

human GPRC5D [2] = biological target: T3, human GPRC5D; assay: FACS, OPM-2 cells
Source text: as §1, §2

human GPRC5D [3] = biological target: T3, human GPRC5D; assay: cell-based or functional assay

T3 sequence (Q9NZD1 whole entry): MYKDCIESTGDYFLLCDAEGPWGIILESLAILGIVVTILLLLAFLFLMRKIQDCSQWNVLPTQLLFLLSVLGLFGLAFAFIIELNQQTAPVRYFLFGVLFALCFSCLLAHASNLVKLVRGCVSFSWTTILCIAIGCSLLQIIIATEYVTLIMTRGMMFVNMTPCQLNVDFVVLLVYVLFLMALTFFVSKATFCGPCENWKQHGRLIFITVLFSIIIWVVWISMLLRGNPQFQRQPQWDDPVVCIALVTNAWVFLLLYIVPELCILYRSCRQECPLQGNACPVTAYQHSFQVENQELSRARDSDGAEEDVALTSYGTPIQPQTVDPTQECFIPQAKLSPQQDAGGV

Row | % Positive (cynomolgus monkey GPRC5D) | MFI (cynomolgus monkey GPRC5D) | % Positive (mouse GPRC5D) | MFI (mouse GPRC5D) | % Positive (human GPRC5D [1]) | MFI (human GPRC5D [1]) | % Positive (human GPRC5D [2]) | MFI (human GPRC5D [2]) | EC50 (human GPRC5D [3]) | Binder | Top killing % (human GPRC5D [3])
1 | 57.4% | 585 | 85.2% | 1480 | 97.9% | 27100 | 99.6% | 1370 | – | 101B3G3 (antibody, V domains shown, Mouse monoclonal antibody from hybridoma subclone) VH: EVQLQQSGPELVKPGASMKISCKASGYSFTGYTMNWVKQSHGKNLEWIGLINPYNGGTRYNQKFKDKATLTVDKSSSTAYMELLSLTSEDSAVYYCARWLLRYAMDYWGQGTSVTVSS VL: DIVMTQSQKFMSTSVGDRVSITCKASQNVGNAVAWYQQKPGHSPKLLISSASNRKNGVPDRFTGSGSGTDFTLTVSNMQSEDLADYFCQQYSDSSWTFGGGTKLEIK | –
2 | – | – | – | – | – | – | – | – | 1.9 nM | Bis-83A9B8 (bispecific antibody) chain 1: EVQLQQSGPELVKPGASVKMSCKASGYTFSNYVIHWVKQKPGQGLEWIGYFNPYNDGSKYNEKFKGKATLTSDKSSSTAYMELSSLTSEDSAVYYCARGGVRRYFDVWGAGTTVTVSS chain 2: GGGGSGGGGSGGGGSEVQLVESGGGLVQPGRSLRLSCAASGFTFDNYAMHWVRQAPGKGLEWVSGISWNSGSIGYADSVKGRFTISRDNAKNSLYLQMNSLRAEDTALYYCAKDSRGYGDYSRGGAYWGQGTLVTVSSEIVMTQSPATLSVSPGERATLSCRASQSVSSNLAWYQQKPGQAPRLLIYGASTRATGIPARFSGSGSGTEFTLTISSLQSEDFAVYYCQQYNNWPWTFGQGTKVEIK chain 3: DIQMTQSPSSLSASLGERVSLTCRASQDIGDNLNWLQQEPDGTIKRLIYATFSLDSGVPKRFSGSRSGSVYSLTISRLESEDFVDYFCLHYASFPYTFGGGTKLEIK | 66.9%
3 | 95.3% | 2070 | 89.4% | 566 | 93.2% | 2070 | 98.7% | 962 | – | 98A3A8 (antibody, V domains shown, Mouse monoclonal antibody from hybridoma subclone) VH: EVQLQQSGPELVKPGASVKMSCKASGYTFTYYVTHWVRQKPGQGLEWIGYINPYNDGTMFNEKFKGKATLTSDKSSSTAYMEFSSLTSEDSAVFYCARGGVRRYFDVWGAGTTVTVSS VL: DIQMTQSPSSLSASLGERVSLTCRASQDIGSNLNWLQQKPDGTIKRLIYATSSLDSGVPKRFSGSRSGSDYSLTINSLESEDFVDYYCLQYASFPYTFGGGTKLEIK | –
4 | – | – | – | – | – | – | – | – | 6.69 nM | Bis-15D6G2 (bispecific antibody) chain 1: EVQLVESGGDLVKPGGYLRLSCAASGFTFSSHGMSWVRQTPDKRLEWVATISSGGRNTYYPDSVKGRFTISRDNAKNILYLQMSSLKSEDTAMFYCTRHSGDAMDYWGQGTSVTVSS chain 2: GGGGSGGGGSGGGGSEVQLVESGGGLVQPGRSLRLSCAASGFTFDNYAMHWVRQAPGKGLEWVSGISWNSGSIGYADSVKGRFTISRDNAKNSLYLQMNSLRAEDTALYYCAKDSRGYGDYSRGGAYWGQGTLVTVSSEIVMTQSPATLSVSPGERATLSCRASQSVSSNLAWYQQKPGQAPRLLIYGASTRATGIPARFSGSGSGTEFTLTISSLQSEDFAVYYCQQYNNWPWTFGQGTKVEIK chain 3: DILLTQSPAILSVSPGERVSFSCRASQSIGTNIHWYQQRTNGSPRLLIKYASESISGIPSRFSGSGSGTDFTLSINSVESEDIADYYCQQSKSWPTFGGGTKLEIK | 45.9%
5 | 59.1% | 355 | 65.7% | 274 | 96.6% | 5010 | 98.3% | 878 | – | 108C4C12 (antibody, V domains shown, Mouse monoclonal antibody from hybridoma subclone) VH: EVQLQQSGPELVKPGASVKMSCKASGYTFTSYVIHWVKQKTGQGLEWIGYFNPYNDGTKYNEEFKGKATLTSDKSSNTAYMELNSLTSDDSAVYFCARGGVRRYFDVWGAGTTVTVSS VL: DIQMTQSPSSLSASLGERVSLTCRASQDIGSNLNWLQQEPDGTIKRLIYATFGLDSGVPKRFSGSRSGSDYSLTISSLESEDFVDYYCQQYASFPYTFGGGTKLEIK | –
